B1: mouse mGluR6 (metabotropic glutamate receptor 6), wild type, complex N-glycosylated form (upper dimer band, band C) [modified: complex N-glycosylation (Endo H-resistant, PNGase F-sensitive); N-glycosylation sites N290, N445 … (parent)
chain 1: AGSVRLAGGLTLGGLFPVHARGAAGRACGTLKKEQGVHRLEAMLYALDRINADPELLPGVRLGARLLDTCSRDTYALEQALSFVQALIRGRGDGEEASVRCPGGVPPLRAAPPERVVAVVGASASSVSIMVANVLRLFAIPQISYASTAPELSDSTRYDFFSRVVPPDSYQAQAMVDIVRALGWNYVSTLASEGNYGESGVEAFVQISREAGGVCIAQSIKIPREPKPGEFHKVIRRLMETPNARGIIIFANEDDIRRVLEATRQANLTGHFLWVGSDSWGSKISPILNLEEEAVGAITILPKRASIDGFDQYFMTRSLENNRRNIWFAEFWEENFNCKLTSSGGQSDDSTRKCTGEERIGQDSTYEQEGKVQFVIDAVYAIAHALHSMHQALCPGHTGLCPAMEPTDGRTLLHYIRAVRFNGSAGTPVMFNENGDAPGRYDIFQYQATNGSASSGGYQAVGQWAEALRLDMEALQWSGDPHEVPPSQCSLPCGPGERKKMVKGVPCCWHCEACDGYRFQVDEFTCEACPGHMRPTPNHTGCRPTPVVRLTWSSPWAALPLLLAVLGIMATTTIIATFMRHNDTPIVRASGRELSYVLLTGIFLIYAITFLMVAEPCAAVCASRRLLLGLGTTLSYSALLTKTNRIYRIFEQGKRSVTPPPFISPTSQLVITFGLTSLQVVGVIAWLGAQPPHSVIDYEEQRTVDPEQARGVLKCDMSDLSLIGCLGYSLLLMVTCTVYAIKARGVPETFNEAKPIGFTMYTTCIIWLAFVPIFFGTAQSAEKIYIQTTTLTVSLSLSASVSLGMLYVPKTYVILFHPEQNVQKRKRSLKKTSTMAAPPKSENSEDAK
chain 2: DCWLIEGDKGYVWLAICSQNQPPYETIPQHINSTVHDLRLNENKLKAVLYSSLNRFGNLTDLNLTKNEISYIEDGAFLGQTSLQVLQLGYNRLSNLTEGMLRGMSRLQFLFVQHNLIEVVTPTAFSECPSLISIDLSSNRLSRLDGATFASLASLMVCELAGNPFNCECDLFGFLAWLVVFNNVTKNYDRLQCESPREFAGYPLLVPRPYHSLNAITVLQAKCRNGSMPARPVSHPTPYSTDAQREPDENSGFNPDEILSVEPPASSTTDASAGPAIKLHQVTFTSATLVVIIPHPYSKMYVLVQYNNSYFSDVMTLKNKKEIVTLDKLRAHTEYTFCVTSLRNSRRFNHTCLTFTTRDLVPGDLAPSTSTTTHY
B2: mouse mGluR6 (metabotropic glutamate receptor 6), wild type, complex N-glycosylated form (upper dimer band, band C) [modified: complex N-glycosylation (Endo H-resistant, PNGase F-sensitive); N-glycosylation sites N290, N445 … (parent)
chain 1: B1 chain 1
chain 2: QGDCWLIEGDKGFVWLAICSQNQPPYEAIPQQINNTIVDLRLNENRIRSVQYASLSRFGNLTYLNLTKNEIGYIEDGAFSGQFNLQVLQLGYNRLRNLTEGMLRGLSKLEYLYLQANLIEVVMASAFWECPNIVNIDLSMNRIQQLGSGTFAGLTKLSVCEIYSNPFYCSCELLGFLRWLAAFTNATQTHDRVQCESPPVYAGYFLLGQGRHGHQRSILSKLQSVCTEGSYTAEVLGPPRPVPGRSQPGHSPPPPPPEPSDMPCADDECFSGDGTTPLVILTTLVPQTEARPSMKVKQLTQNSATIMVQLPSPFNRMYTLEQYNNSKSFTVSKLTQPQEEIRLTNLYTLTNYTYCVVSTSSGTHHNHTCLTICLPKPPSPPGPVPSPSTATHY

Variants of: B1
Assay: pull-down
Conditions: with ELFN2 extracellular domain fused to human Fc [mouse]; parent: 1; read off a plot

| Variant | ratio to parent |
| --- | --- |
| chain 1 N538Q | 0.32 |
| chain 1 N267Q | 0.52 |
| chain 1 N450Q | 0.32 |
| chain 1 N422Q | 0.04 |

Variants of: B2
Assay: pull-down
Conditions: with ELFN1 extracellular domain fused to human Fc [mouse]; parent: 1; read off a plot

| Variant | ratio to parent |
| --- | --- |
| chain 1 N267Q | 0.59 |
| chain 1 N538Q | 0.13 |
| chain 1 N450Q | 0.6 |
| chain 1 N422Q | 0.05 |

Same assay, conditions: with ELFN1 extracellular domain fused to human Fc [mouse]; five times more transfected cells were used for 4Q; parent: 1; read off a plot

| Variant | ratio to parent |
| --- | --- |
| chain 1 N267Q N422Q N450Q N538Q | 0.04 |
